According to patent US20210040194A1:

Assays:
Assay in all cases: cell-based or functional assay
[1] = biological target: mouse Ang2 (mouse) (UniProt O35608)
[2] = biological target: Human ANG-2 (huAng2) (human) (UniProt O15123)
[3] = biological target: cyno Ang2 (cyno)

Chain of Human ANG-2 (huAng2) (human) (O15123 19-496 limits assumed): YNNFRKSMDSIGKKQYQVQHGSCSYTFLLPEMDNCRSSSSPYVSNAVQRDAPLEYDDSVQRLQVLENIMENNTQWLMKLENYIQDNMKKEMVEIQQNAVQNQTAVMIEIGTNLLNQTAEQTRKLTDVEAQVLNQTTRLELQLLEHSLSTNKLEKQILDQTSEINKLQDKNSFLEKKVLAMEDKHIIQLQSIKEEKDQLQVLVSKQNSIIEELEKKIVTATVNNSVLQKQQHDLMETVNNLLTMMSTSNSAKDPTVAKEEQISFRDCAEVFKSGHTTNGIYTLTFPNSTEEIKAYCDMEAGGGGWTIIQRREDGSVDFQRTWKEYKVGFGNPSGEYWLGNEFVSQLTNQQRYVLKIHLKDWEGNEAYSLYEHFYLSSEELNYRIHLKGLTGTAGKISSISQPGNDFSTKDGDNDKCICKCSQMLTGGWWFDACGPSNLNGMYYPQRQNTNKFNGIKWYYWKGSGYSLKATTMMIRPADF
Chain of mouse Ang2 (mouse) (O35608 19-496 limits assumed): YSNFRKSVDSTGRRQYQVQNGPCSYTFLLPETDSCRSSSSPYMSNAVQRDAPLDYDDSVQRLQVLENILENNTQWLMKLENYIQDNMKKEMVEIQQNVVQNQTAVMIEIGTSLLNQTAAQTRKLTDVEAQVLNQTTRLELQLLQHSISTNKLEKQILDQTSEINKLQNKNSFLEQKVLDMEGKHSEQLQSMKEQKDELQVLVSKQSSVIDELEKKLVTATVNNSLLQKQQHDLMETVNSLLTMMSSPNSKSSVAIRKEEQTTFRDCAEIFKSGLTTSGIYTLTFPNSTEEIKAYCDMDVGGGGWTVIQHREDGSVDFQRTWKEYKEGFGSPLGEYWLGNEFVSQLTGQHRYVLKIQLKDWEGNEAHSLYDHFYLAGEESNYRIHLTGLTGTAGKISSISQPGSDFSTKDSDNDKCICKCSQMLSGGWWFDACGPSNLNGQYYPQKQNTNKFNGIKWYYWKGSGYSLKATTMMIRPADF

Question: With MEDI3617 (antibody) as the substance, how does the Mu pTie2 EC50 (nM) [1] read?
Answer: 137 nM

Question: What about the Hu pTie2 EC50 (nM), Hek293-Tie2 cells [2] of the same substance?
Answer: 2.65 nM

Question: What about the Cyno pTie2 EC50 (nM) [3] of the same substance?
Answer: 33.2 nM
